From patent US20250076311A1 (Chugai, published 2025)
Blank lines part the entries; values can stand above or below the binder they belong to.

Key:
[1] = biological target: T1, cynomolgus monkey FcγRIIIaS extracellular domain, His-tagged (cynomolgus monkey, UniProt A3RFZ7 21-206 (rhesus entry)); assay: SPR (BIACORE), antibody captured on chip, soluble FcgR as analyte, 25 C
T1 construct: also called cyno FcgRIIIaS; cynoFcγRIIIaS; not shown: His-tag added to the C-terminus
Protocol: (§1) The kinetic analysis of interactions between these antibodies and FcγR was carried out using BIACORE® T200 or BIACORE® 4000 (GE Healthcare). HBS-EP+ (GE Healthcare) was used as the running buffer, and the measurement temperature was set to 25° C. […] After the measurement, the antibody captured on the chip was washed off by allowing reaction with 10 mM glycine-HCl, pH1.5 and 25 mM NaOH so that the chip was regenerated and used repeatedly. The sensorgrams obtained as measurement results were analyzed by the 1:1 Langmuir binding model using the BIACORE® Evaluation Software to calculate the binding rate constant ka (L/mol/s) and dissociation rate constant kd (1/s), and the dissociation constant KD (mol/L) was calculated from these values. […] Regarding such interactions, KD values were calculated using the following 1:1 binding model described in BIACORE® T100 Software Handbook BR1006-48 Edition AE.

[2] = biological target: T2, human FcγRIIIaV extracellular domain, His-tagged (human, UniProt P08637 17-208); assay: as above
T2 construct: also called human FcgRIIIaV; not shown: His-tag added to the C-terminus
T2 sequence (P08637 17-208 F176V): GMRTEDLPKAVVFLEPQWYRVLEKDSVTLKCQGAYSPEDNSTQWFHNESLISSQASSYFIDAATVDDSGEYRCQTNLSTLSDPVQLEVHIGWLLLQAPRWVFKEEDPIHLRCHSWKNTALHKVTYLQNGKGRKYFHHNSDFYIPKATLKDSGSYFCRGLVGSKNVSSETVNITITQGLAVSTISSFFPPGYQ
Protocol: as §1

[3] = biological target: T3, cynomolgus monkey FcγRIIa3 extracellular domain, His-tagged (cynomolgus monkey); assay: SPR (BIACORE); KD of SG1 divided by KD of the variant
T3 construct: also called cyno FcgRIIa3; cynoFcγRIIa3; not shown: His-tag added to the C-terminus
T3 chain: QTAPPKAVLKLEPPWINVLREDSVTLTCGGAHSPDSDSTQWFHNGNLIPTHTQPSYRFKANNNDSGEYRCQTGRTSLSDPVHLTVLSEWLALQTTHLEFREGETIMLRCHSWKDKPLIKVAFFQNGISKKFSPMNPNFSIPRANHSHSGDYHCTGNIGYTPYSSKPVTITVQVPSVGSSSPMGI
Protocol: as §1

[4] = biological target: T4, human FcγRIIaR extracellular domain, His-tagged (human, UniProt P12318 34-217); assay: as above
T4 construct: also called human FcgRIIaR; FcγRIIa (type R); not shown: His-tag added to the C-terminus
T4 chain: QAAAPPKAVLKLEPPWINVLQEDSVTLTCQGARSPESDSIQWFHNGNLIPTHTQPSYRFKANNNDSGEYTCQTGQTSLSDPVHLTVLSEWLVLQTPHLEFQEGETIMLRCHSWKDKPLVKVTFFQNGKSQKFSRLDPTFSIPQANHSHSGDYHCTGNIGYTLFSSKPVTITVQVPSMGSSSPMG
Protocol: as §1

[5] = biological target: T5, human FcγRIIaH extracellular domain, His-tagged (human, UniProt P12318 34-217); assay: as above
T5 construct: also called human FcgRIIaH; FcγRIIa (type H); not shown: His-tag added to the C-terminus
T5 sequence: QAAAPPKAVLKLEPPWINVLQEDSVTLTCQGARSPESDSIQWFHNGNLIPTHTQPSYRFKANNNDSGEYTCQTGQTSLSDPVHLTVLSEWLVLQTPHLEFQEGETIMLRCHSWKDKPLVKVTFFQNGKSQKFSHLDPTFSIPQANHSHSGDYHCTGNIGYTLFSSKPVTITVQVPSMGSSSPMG
Protocol: as §1

[6] = biological target: T6, human FcγRIIb extracellular domain, His-tagged (human, UniProt P31994 43-217); assay: SPR (BIACORE), antibody captured on chip, soluble FcgR as analyte, 25 C
T6 construct: also called human FcgRIIb; not shown: His-tag added to the C-terminus
T6 sequence: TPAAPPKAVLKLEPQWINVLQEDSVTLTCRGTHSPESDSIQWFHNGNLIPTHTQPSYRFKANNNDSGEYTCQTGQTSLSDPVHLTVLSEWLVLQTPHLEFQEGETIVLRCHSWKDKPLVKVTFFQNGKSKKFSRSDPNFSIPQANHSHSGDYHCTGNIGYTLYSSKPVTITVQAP
Protocol: as §1

[7] = biological target: T7, cynomolgus monkey FcγRIIb extracellular domain, His-tagged (cynomolgus monkey); assay: as above
T7 construct: also called cyno FcgRIIb; cynoFcγRIIb; not shown: His-tag added to the C-terminus
T7 chain: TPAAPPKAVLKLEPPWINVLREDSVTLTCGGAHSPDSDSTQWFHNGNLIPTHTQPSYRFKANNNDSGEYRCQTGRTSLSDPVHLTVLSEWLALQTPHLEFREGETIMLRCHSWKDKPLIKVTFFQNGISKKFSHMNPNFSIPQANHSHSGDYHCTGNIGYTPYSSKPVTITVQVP
Protocol: as §1

[8] = biological target: T5, human FcγRIIaH extracellular domain, …; assay: as above
Protocol: as §1

[9] = biological target: T8, cynomolgus monkey FcγRIIa1 extracellular domain, His-tagged (cynomolgus monkey); assay: SPR (BIACORE); KD of SG1 divided by KD of the variant
T8 construct: also called cyno FcgRIIa1; cynoFcγRIIa1; not shown: His-tag added to the C-terminus
T8 chain: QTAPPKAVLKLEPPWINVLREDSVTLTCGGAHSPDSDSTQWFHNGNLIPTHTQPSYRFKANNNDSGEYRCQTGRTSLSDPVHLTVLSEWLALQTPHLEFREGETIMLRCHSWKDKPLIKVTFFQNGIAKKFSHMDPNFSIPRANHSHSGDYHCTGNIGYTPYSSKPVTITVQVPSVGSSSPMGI
Protocol: as §1

[10] = biological target: T3, cynomolgus monkey FcγRIIa3 …; assay: SPR (BIACORE), antibody captured on chip, soluble FcgR as analyte, 25 C
Protocol: as §1

[11] = biological target: T2, human FcγRIIIaV extracellular domain, …; assay: SPR (BIACORE); KD of SG1 divided by KD of the variant
Protocol: as §1

[12] = biological target: T8, cynomolgus monkey FcγRIIa1 …; assay: SPR (BIACORE), antibody captured on chip, soluble FcgR as analyte, 25 C
Protocol: as §1

[13] = biological target: T6, human FcγRIIb extracellular domain, …; assay: SPR (BIACORE); KD of SG1 divided by KD of the variant
Protocol: as §1

[14] = biological target: T1, cynomolgus monkey FcγRIIIaS …; assay: as above
Protocol: as §1

T1 sequence (A3RFZ7 21-206): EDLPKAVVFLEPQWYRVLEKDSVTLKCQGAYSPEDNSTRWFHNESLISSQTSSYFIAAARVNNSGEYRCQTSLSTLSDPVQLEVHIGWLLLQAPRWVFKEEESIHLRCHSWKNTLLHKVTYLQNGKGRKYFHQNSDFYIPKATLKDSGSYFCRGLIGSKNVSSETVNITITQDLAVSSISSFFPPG

Kd [1]: 0.85 µM | Kd [2]: 30 µM | KD fold (SG1 = 1) [3]: 1.7 fold | KD fold (SG1 = 1) [4]: 0.5 fold | KD fold (SG1 = 1) [5]: 0.7 fold
B1: M103205H795-MY260/M103202L889-SK1 (antibody)
heavy: QVTLKESGPVLVKPTETLTLTCTVSGIDLSHDDISWVRQAPGKGLEWVGIISYAGSTYYASWAKGRLTISKDTSKNQVVLTMTNMDPVDTATYYCARGVPAYSHGGDLWGQGTLVTVSSASTKGPSVFPLAPSSKSTSGGTAALGCLVKDYFPEPVTVSWNSGALTSGVHTFPAVLQSSGLYSLSSVVTVPSSSLGTQTYICNVNHKPSNTKVDKKVEPKSCDKTHTCPPCPAPELLMGPSVFLFPPKPKDTLMISRTPEVTCVVVDVSDEDPEVKFNWYVDGVEVHNAKTKPREEQYNSTYRVVSVLTVLHQDWLNGKEYKCKVSNKALPKPIEKTISKAKGQPREPQVYTLPPSREEMTKNQVSLTCLVKGFYPSDIAVEWESNGQPENNYKTTPPVLDSDGSFFLYSKLTVDKSRWQQGNVFSCSVMHEALHNHYTQKSLSLSP
light: DIVMTQSPATLSLSPGERATLSCTSSQSVYHANWLSWFQQKPGQPPKLLIYWASTLAYGVPSRFSGSGSGTDFTLTISSLQPEDAATYYCAGGYGGGRYAFGQGTKVEIKRTVAAPSVFIFPPSDEQLKSGTASVVCLLNNFYPREAKVQWKVDNALQSGNSQESVTEQDSKDSTYSLSSTLTLSKADYEKHKVYACEVTHQGLSSPVTKSFNRGEC

Kd [6]: 22 µM | Kd [7]: 0.26 µM | Kd [8]: 0.15 µM | KD fold (SG1 = 1) [3]: 2.1 fold | KD fold (SG1 = 1) [9]: 0.8 fold
B2: M103205H795-MY264/M103202L889-SK1 (antibody, human IgG1, kappa, name in EU numbering)
heavy: QVTLKESGPVLVKPTETLTLTCTVSGIDLSHDDISWVRQAPGKGLEWVGIISYAGSTYYASWAKGRLTISKDTSKNQVVLTMTNMDPVDTATYYCARGVPAYSHGGDLWGQGTLVTVSSASTKGPSVFPLAPSSKSTSGGTAALGCLVKDYFPEPVTVSWNSGALTSGVHTFPAVLQSSGLYSLSSVVTVPSSSLGTQTYICNVNHKPSNTKVDKKVEPKSCDKTHTCPPCPAPELLLGPSVFLFPPKPKDTLMISRTPEVTCVVVDVSDEDPEVKFNWYVDGVEVHNAKTKPREEQYNSTYRVVSVLTVLHQDWLNGKEYKCKVSNKALPKPIEKTISKAKGQPREPQVYTLPPSREEMTKNQVSLTCLVKGFYPSDIAVEWESNGQPENNYKTTPPVLDSDGSFFLYSKLTVDKSRWQQGNVFSCSVMHEALHNHYTQKSLSLSP
light: DIVMTQSPATLSLSPGERATLSCTSSQSVYHANWLSWFQQKPGQPPKLLIYWASTLAYGVPSRFSGSGSGTDFTLTISSLQPEDAATYYCAGGYGGGRYAFGQGTKVEIKRTVAAPSVFIFPPSDEQLKSGTASVVCLLNNFYPREAKVQWKVDNALQSGNSQESVTEQDSKDSTYSLSSTLTLSKADYEKHKVYACEVTHQGLSSPVTKSFNRGEC
notes: Asn at EU 236 of MY201 replaced with Leu

Kd [10]: 73 µM | KD fold (SG1 = 1) [11]: 0.39 fold
B3: M103205H795-MY263/M103202L889-SK1 (antibody, human IgG1, kappa, name in EU numbering)
heavy: QVTLKESGPVLVKPTETLTLTCTVSGIDLSHDDISWVRQAPGKGLEWVGIISYAGSTYYASWAKGRLTISKDTSKNQVVLTMTNMDPVDTATYYCARGVPAYSHGGDLWGQGTLVTVSSASTKGPSVFPLAPSSKSTSGGTAALGCLVKDYFPEPVTVSWNSGALTSGVHTFPAVLQSSGLYSLSSVVTVPSSSLGTQTYICNVNHKPSNTKVDKKVEPKSCDKTHTCPPCPAPELLQGPSVFLFPPKPKDTLMISRTPEVTCVVVDVSDEDPEVKFNWYVDGVEVHNAKTKPREEQYNSTYRVVSVLTVLHQDWLNGKEYKCKVSNKALPKPIEKTISKAKGQPREPQVYTLPPSREEMTKNQVSLTCLVKGFYPSDIAVEWESNGQPENNYKTTPPVLDSDGSFFLYSKLTVDKSRWQQGNVFSCSVMHEALHNHYTQKSLSLSP
light: DIVMTQSPATLSLSPGERATLSCTSSQSVYHANWLSWFQQKPGQPPKLLIYWASTLAYGVPSRFSGSGSGTDFTLTISSLQPEDAATYYCAGGYGGGRYAFGQGTKVEIKRTVAAPSVFIFPPSDEQLKSGTASVVCLLNNFYPREAKVQWKVDNALQSGNSQESVTEQDSKDSTYSLSSTLTLSKADYEKHKVYACEVTHQGLSSPVTKSFNRGEC
notes: Asn at EU 236 of MY201 replaced with Gln

Kd [10]: 80 µM | Kd [12]: 1.5 µM | KD fold (SG1 = 1) [13]: 0.3 fold | KD fold (SG1 = 1) [14]: 0.35 fold
B4: M103205H795-MY262/M103202L889-SK1 (antibody, human IgG1, kappa, name in EU numbering)
heavy: QVTLKESGPVLVKPTETLTLTCTVSGIDLSHDDISWVRQAPGKGLEWVGIISYAGSTYYASWAKGRLTISKDTSKNQVVLTMTNMDPVDTATYYCARGVPAYSHGGDLWGQGTLVTVSSASTKGPSVFPLAPSSKSTSGGTAALGCLVKDYFPEPVTVSWNSGALTSGVHTFPAVLQSSGLYSLSSVVTVPSSSLGTQTYICNVNHKPSNTKVDKKVEPKSCDKTHTCPPCPAPELLVGPSVFLFPPKPKDTLMISRTPEVTCVVVDVSDEDPEVKFNWYVDGVEVHNAKTKPREEQYNSTYRVVSVLTVLHQDWLNGKEYKCKVSNKALPKPIEKTISKAKGQPREPQVYTLPPSREEMTKNQVSLTCLVKGFYPSDIAVEWESNGQPENNYKTTPPVLDSDGSFFLYSKLTVDKSRWQQGNVFSCSVMHEALHNHYTQKSLSLSP
light: DIVMTQSPATLSLSPGERATLSCTSSQSVYHANWLSWFQQKPGQPPKLLIYWASTLAYGVPSRFSGSGSGTDFTLTISSLQPEDAATYYCAGGYGGGRYAFGQGTKVEIKRTVAAPSVFIFPPSDEQLKSGTASVVCLLNNFYPREAKVQWKVDNALQSGNSQESVTEQDSKDSTYSLSSTLTLSKADYEKHKVYACEVTHQGLSSPVTKSFNRGEC
notes: Asn at EU 236 of MY201 replaced with Val
